Target: E. coli lipoic acid ligase (LplA) variant A48N on the W37V background (E. coli)
Assay: SEC-SAXS; SEC-SAXS of purified LplA variant with lipoyl-AMS; DENSS ab initio envelope fitted with the major conformer; high protein concentrations required for SAXS; dimer model generated by AlphaFold3

Q: Which stoichiometry N does the source give for “E. coli lipoic acid ligase (LplA) variant A48N on the W37V background (enzyme)” here?
A: Its stoichiometry N is 2.
